Laboratory results taken from the supplement of paper PMC9170038.

Test system: MS2 coat protein
Test: apparent KD of MS2 coat protein; designed switch direction (-1 OFF switch, 1 ON switch): -1; higher = weaker reporter binding
How it was run: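 An oligonucleotide input, 200 uM small-molecule ligand, or no input was present during titration of SNAP-549-labelled MS2 coat protein, which was doubled from 0.7 or 1.5 nM to 3 µM. Designed RNA switches had been transcribed on Illumina chips by stalled E. coli RNA polymerase. Apparent KD per design is the median over clusters of curves fitted to normalised cluster fluorescence.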

[1] = input ligand: microRNA oligo, concentration not stated

Sequence	apparent KD of MS2 coat protein (input ligand: FMN 200 uM) [nM]	apparent KD of MS2 coat protein (input ligand: none) [nM]	apparent KD of MS2 coat protein [1] [nM]	apparent KD of MS2 coat protein (Eterna round: R95, input ligand: microRNA oligo, concentration not stated) [nM]
ACAUUGCGAGGAUAUACAUGAGGAUCACCCAUGUGGUAGUGGAUACGGUAGGGCUAGUGUAGAAGGUGUUAUGA [EX3 #15] (Eterna round: R97, puzzle: Exclusion 3)	98.8	132	–	–
AAAACGUGAGCAGGAUAUGCAAUAAGAUCAGGUCUUCACAUGAGGAUCACCCAUGUAUAAGGGACGCAGAAGGGCUGAUAAAAG [Aesedat] (Eterna round: R96, puzzle: Exclusion NG 2)	98.4	60.9	49.6	–
AUCGUGCAGCUUUGCUGUACGAGUACAUGAGGAUCACCCAUGUAGGAUAUGGUACGCUUUGCGUGCUAGAAGGAUAUGUGUUAG [EX ENG3 1.43] (Eterna round: R96, puzzle: Exclusion NG 3)	46.6	44.2	34.8	–
GCUGCGCGAGGAUAUGCGGUUCGCGCGGUGGCCGCUGGCGGACAUGAGGAUCACCCAUGUAGAAGGCGUGCGGG [Apr-15 SS2-60] (puzzle: Exclusion 2)	–	–	–	11.7
UAUAUAUAGUAAGGAUAUGUAUUAAUUUUAUUAACAGAAGGUACUGACAUGAGGAUCACCCAUGUUUUAGUGUGGGCAUGUAGA [JMF's solution 90] (Eterna round: R96, puzzle: Exclusion NG 1)	–	–	69.4	–
UCGCUCCGUGUAGGAUAUCGUUGUACUCUGCGGCGAGAAGGACAUGAGGAUCACCCAUGUAUGUUAUUAUCACGCGUGGCGCAA [Design 68] (Eterna round: R96, puzzle: Exclusion NG 1)	21.5	19	17	–
ACAAGCUCUGUGGGUGGUGACAUGAGGAUCACCCAUGUUUUGCUCGUCUUGUGCCGGGCCCGGCGCCCGGGCCCGGC [-40.5, -69.4, A 8%] (Eterna round: R97, puzzle: Sensor, turn-off variant 1)	261	715	–	–
AAGAAACAUGAGGAUCACCCAUGUGAGGAUAUGGCCCGCCCGGCGUGAGCUGGAUAAAUCAGAAGGCACAAAGG [salish99_ex1_r4_012] (Eterna round: R97, puzzle: Exclusion 1)	57.2	46	–	–
GUCAGCUCGUGAGGAUAUACAUGAGGAUCACCCAUGUGAUCAAUAGCAGCUUCGGCUGCAUUAAUGUAGAAGGCACGAGCUGAC [ENG2/5-A1] (Eterna round: R96, puzzle: Exclusion NG 2)	61.8	152	22.2	–
UGUGCUUCAGGAUAUACGUGACGACCGUGAGGUCGAAGGUUACAUGAGGAUCACCCAUGUAGAAGGGAAGUACU [Mat - Exclusion 2 - JL Mod - D29] (Eterna round: R97, puzzle: Exclusion 2)	66.8	33	–	–
CAUGUGCGAAAGGAUAUGGCCCGCGGAUCAGCUCCAGAAGGUUCGACAUGAGGAUCACCCAUGUGAUCUGGUAA [Eternabot (L1) Solution 61] (Eterna round: R97, puzzle: Exclusion 6)	139	369	–	–
ACAUGAGGAUCACCCAUGUCAGGUUGGUUUUCUCCGGCUGUUGAGGAUAUAGUCCGGUAUCCGCGCUAGAAGGUGAGGGUUGGC [Aenatbe mod 13] (Eterna round: R96, puzzle: Exclusion NG 3)	64.5	78.7	54.4	–
GUCAGUAUAUAACAAGCAUACAUGAGGAUCACCCAUGUGCGCGGAAAGCGUUUCCGCGCAUAUCGUUCCUAGCUCGG [Eternabot (Original) Solution 14] (Eterna round: R97, puzzle: Sensor, turn-off variant 1)	419	505	–	–
